Literature values as cited in PMC8227800.

Target: Cdh2 (Danio rerio) (UniProt Q90275)

Kd: 200 nM
Substance: Cdh2 (from UniProt Q90275)
